This is an account of results in patent publication US20140302063A1 (SECRETARY OF STATE FOR HEALTH, published 2014).

The labels stand for the following.
B1: R2a-G8 (VHH)
VHH: QLQLAESGGGLVQAGGSLRLSCAASGSTLNNNAIGWFRQAPGKEREGVSCMNSRDGTTNYADSVKGRFTISRDVAKNTVYLQMNSLKPEDTAVYFCAVKGFAPFLIGCPWGKAEYDYWGQGTQVTVSS
B2: R1a-C5 (VHH)
VHH: QVQLVESGGGLVQPGGSLRLSCAASNDIFSFYTMGWYLQAIGKQREPVAVIGNGGNTNYAESVKGRFTISRDGAKNTAYLQMNSLKPEDTAVYYCMASGPGGLNVWGQGTQVTVSS
B3: R2b-D9 (VHH)
VHH: QVQLVESGGGLVQPGGSLRLSCLASGSAFSLYTMGWYRQAPGNQRELVAAITSGESTNYADSVKGRFTISRDNAKNTVYLQMNSLKPEDTAVYYCNADPLSTGWGQYSYWGQGTQVTVSS
B4: R1a-A5 (VHH)
VHH: QVQLVESGGGLVQPGGSLRLSCSASGSAVLFSTYPMSWYRQAPGKQRELVAAVTTDGSTSYADYAKGRFTISRDNAKNTVYLQMNSLKPEDTAVYYCNARDGFFNRYDYWGQGTQVTVSS
B5: R2b-E8 (VHH)
VHH: QVQLVESGGGLVQPGGSLRLSCAASGSFFSRYRMGWYRQAPGEQRELVAGITYDDSTNYAGSVKGRFTISRDNAKNTVHLQMNSLKPEDTAVYYCNLNPPGNLYWGQGTQVTVSS
B6: R1a-B6 (VHH)
VHH: QVQLVESGGGLVQPGGSLRLSCAASGSFFSRYRMGWYRQAPGEQRELVASIAYDGSTSYADPVKGRFTISRDNANTVHLQMYSLKPDDTAVYYCNLDPPGILYWGQGTQVTVSS
B7: R1a-H6 (VHH)
VHH: QVQLVESGGGLVQAGDSLRLSCTASVLTFSLYRVGWFRQAPGKEREFVAAIDWGDGPTTYADSVKGRFTISRDNAERTAYLQINSLKPEDTAVYYCGAGNTGSSDRSSSYVHWGQGTQVTVSS

The first assay has as its target A/HongKong/213/2003 (H5N1) inactivated viral preparation (Influenza A virus A/HongKong/213/2003 (H5N1)). Nature of the assay: ELISA, inactivated virus. (In an ELISA, binding on a coated surface is turned into a signal by an enzyme label.)
On to B1, for which the EC50 turned out to be 6.2 µg/mL.

As to B2, the EC50 stood at 2.9 µg/mL.

In the case of B3, the EC50 turned out to be 2.8 µg/mL.

As to B4, the EC50 is 0.27 µg/mL.

Molecule B5 showed a concentration giving a half-maximal response (EC50) of 1.2 µg/mL.

As to B6, the EC50 came out at 0.37 µg/mL. Compared with the last molecule, the EC50 is about 3.2-fold lower.

In a further assay the target is A/TurkTurk/1/2005 (H5N1) inactivated viral preparation (Influenza A virus A/turkey/Turkey/1/2005 (H5N1)). The assay is described as follows: ELISA, inactivated virus.
On to B1, for which the half-maximal effective concentration (EC50) was 1.93 µg/mL.

Molecule B2 yielded an EC50 of 0.15 µg/mL. This EC50 is about 13-fold lower than that of the molecule before.

On to B3, for which the EC50 was 0.76 µg/mL.

B4 gave an EC50 of 0.13 µg/mL.

The molecule B5 had an EC50 of 0.89 µg/mL.

Molecule B6 gave an EC50 of 0.44 µg/mL. Against the preceding molecule, the EC50 is about 2-fold lower.

The next assay has as its target A/HongKong/1073/99 (H9N2) inactivated viral preparation (Influenza A virus A/HongKong/1073/99 (H9N2)). The assay is described as follows: ELISA, inactivated virus.
Molecule B2 registered an EC50 of 4.48 µg/mL.

With B5, the EC50 was determined as 5.63 µg/mL.

As to B6, the EC50 came out at 2.3 µg/mL.

Turning to B7, the EC50 stood at 5.7 µg/mL.

The target in another assay is A/Indonesia/05/2005 (H5N1) inactivated viral preparation (Influenza A virus A/Indonesia/05/2005 (H5N1)). Nature of the assay: ELISA, inactivated virus.
With B1, the EC50 amounted to 5.7 µg/mL.

As to B2, the EC50 came to 1.17 µg/mL.

With B3, the EC50 amounted to 0.58 µg/mL.

Consider B4, for which the EC50 turned out to be 0.15 µg/mL.

B5: the EC50 was found to be 0.8 µg/mL.

In turn, B6 returned an EC50 of 0.42 µg/mL.

Another assay has as its target A/Duck/Sing-Q/97 (H5N3) inactivated viral preparation (Influenza A virus A/Duck/Sing-Q/97 (H5N3)). The assay is described as follows: ELISA, inactivated virus.
B1 registered an EC50 of 9.67 µg/mL.

Molecule B2 came in with an EC50 of 7.57 µg/mL.

Molecule B3 returned an EC50 of 5.64 µg/mL.

Consider B4, for which the EC50 was 0.27 µg/mL.

Regarding B5, the concentration giving a half-maximal response (EC50) was 4.98 µg/mL.

The molecule B6 registered a 50% effective concentration (EC50) of 1.32 µg/mL. Against the preceding molecule, the EC50 is about 3.8-fold lower.

In the next assay the target is A/mallard/Eng/727/06 (H2N3) inactivated viral preparation (Influenza A virus A/mallard/Eng/727/06 (H2N3)). Nature of the assay: ELISA, inactivated virus.
B1 yielded an EC50 of 2.5 µg/mL.

Molecule B2 returned an EC50 of 0.06 µg/mL. Compared with the last molecule, the EC50 is about 42-fold lower.

B3 came in with a concentration for a half-maximal effect (EC50) of 0.06 µg/mL.

In turn, B4 registered an EC50 of 0.006 µg/mL.

On to B5, for which the EC50 amounted to 0.002 µg/mL. Compared with the last molecule, the EC50 is about 3-fold lower.

For B6, the EC50 is 0.102 µg/mL. This EC50 lies about 51-fold higher than the previous one.

The target of a further assay is A/Vietnam/119/2004 (H5N1) inactivated viral preparation (Influenza A virus A/Vietnam/119/2004 (H5N1)). Nature of the assay: ELISA, inactivated virus.
Take B1: the EC50 is 3.36 µg/mL.

In turn, B2 showed an EC50 of 2.89 µg/mL.

The molecule B3 registered an EC50 of 1.81 µg/mL.

For the molecule B4, the 50% effective concentration (EC50) is 0.25 µg/mL. This EC50 lies about 7.2-fold lower than the previous one.

Regarding B5, the EC50 amounted to 1.83 µg/mL. This EC50 is about 7.3-fold higher than that of the molecule before.

As to B6, the EC50 was found to be 0.82 µg/mL.

The EC50 is the midpoint of the concentration-response curve. A high value points to weaker potency.
